Reference: patent US20170334962A1 (TEXAS A AND M UNIVERSITY SYSTEM, published 2017)
Positions count from the first letter of the chain named. Names may count otherwise. Each block holds one binder with its values, some of them ahead of it.

Legend:
[1] = molecular target: T1, recombinant soluble mouse FcRn (mouse, UniProt Q61559 22-290; P01887 21-119, limits assumed); assay: SPR (BIAcore 2000), Fc-hinge immobilized by amine coupling, soluble mouse FcRn as analyte, pH 6.0; value for the higher affinity site; pH 6.0
T1 construct: also called mFcRn
T1 sequence (looked up) 1: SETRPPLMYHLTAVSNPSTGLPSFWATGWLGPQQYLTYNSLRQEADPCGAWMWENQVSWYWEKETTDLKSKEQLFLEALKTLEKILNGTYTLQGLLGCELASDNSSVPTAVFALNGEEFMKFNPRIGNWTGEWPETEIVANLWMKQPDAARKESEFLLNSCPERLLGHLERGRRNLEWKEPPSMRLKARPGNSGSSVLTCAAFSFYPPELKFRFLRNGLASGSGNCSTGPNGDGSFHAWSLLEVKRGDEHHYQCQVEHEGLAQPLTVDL
T1 sequence (looked up) 2: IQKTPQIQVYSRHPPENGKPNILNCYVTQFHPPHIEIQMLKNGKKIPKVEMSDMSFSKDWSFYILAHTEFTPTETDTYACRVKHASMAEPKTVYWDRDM
Description: (§1) Equilibrium dissociation constants of WT and mutated mouse Fc-hinge fragments (IgG1-derived) for binding to recombinant mouse FcRn were determined using surface plasmon resonance and a BlAcore 2000. Mouse Fc-hinge fragments were immobilized by amine coupling chemistry (to a density of ˜250-850 RU) and BlAcore experiments carried out as described previously, using soluble mouse FcRn in Dulbecco's phosphate-buffered saline (DPBS) plus 0.01% Tween pH 6.0 or 7.4 as analyte. FcRn binds to two sites on IgG that are not equivalent. […] The data were processed as described previously.

[2] = molecular target: T1, recombinant soluble mouse FcRn; assay: SPR (BIAcore 2000), Fc-hinge immobilized by amine coupling, soluble mouse FcRn as analyte, pH 6.0; value for the higher affinity site
Description: as §1

[3] = molecular target: T1, recombinant soluble mouse FcRn; assay: SPR (BIAcore 2000), Fc-hinge immobilized by amine coupling, soluble mouse FcRn as analyte, pH 7.4; value for the higher affinity site
Description: as §1

[4] = molecular target: T1, recombinant soluble mouse FcRn; assay: SPR (BIAcore T200), fusion immobilized on a CM5 chip, mFcRn as analyte, pH 6.0; value for the higher affinity site; pH 6.0
Description: (§2) Equilibrium dissociation constants (KDs) for the binding of Fc-OVA(323-339) (WT, TT-HN and H435A) to recombinant mouse FcRn were determined using surface plasmon resonance (BlAcore T200; GE Healthcare) and previously described methods. CM5 chips were coupled with recombinant Fc(WT)-OVA(323-339), Fc(TT-HN)-OVA(323-339), and Fc(H435A)-OVA(323-339) to densities of ˜500-900 RU followed by injection of mFcRn at various concentrations (1-2000 nM) at a flow rate of 10 μl/min using PBS (pH 6.0 or 7.4; Lonza), 0.01% (v/v) Tween-20 as running buffer. Flow cells were regenerated at the end of each cycle using 0.15 M NaCl, 0.1 M sodium bicarbonate (pH 8.5) buffer. FcRn binds to two sites on IgG-Fc that are not equivalent. […] The data were processed as described previously.

[5] = molecular target: T1, recombinant soluble mouse FcRn; assay: SPR (BIAcore T200), fusion immobilized on a CM5 chip, mFcRn as analyte, pH 6.0
Description: as §2

[6] = molecular target: T1, recombinant soluble mouse FcRn; assay: SPR (BIAcore T200), fusion immobilized on a CM5 chip, mFcRn as analyte, pH 6.0; value for the higher affinity site
Description: as §2

[7] = molecular target: T1, recombinant soluble mouse FcRn; assay: SPR (BIAcore T200), fusion immobilized on a CM5 chip, mFcRn as analyte, pH 7.4; value for the higher affinity site
Description: as §2

Kd [1]: 218 nM
B1: WT mouse Fc-hinge fragment (IgG1-derived) (other, UniProt P01868 98-324, looked up)
chain: VPRDCGCKPCICTVPEVSSVFIFPPKPKDVLTITLTPKVTCVVVDISKDDPEVQFSWFVDDVEVHTAQTQPREEQFNSTFRSVSELPIMHQDWLNGKEFKCRVNSAAFPAPIEKTISKTKGRPKAPQVYTIPPPKEQMAKDKVSLTCMITDFFPEDITVEWQWNGQPAENYKNTQPIMNTNGSYFVYSKLNVQKSNWEAGNTFTCSVLHEGLHNHHTEKSLSHSPGK
notes: domain: Fc-hinge; Recombinant Fc-hinge made in CHO-S cells by methods analogous to those for the Fc-MBP fusions; also called WT Fc-hinge

Kd [2]: 1.1 nM
Kd [3]: 20.4 nM
B2: m-set-2 mouse Fc-hinge fragment (IgG1-derived; T252Y/T256E/H433K/N434F) (other, UniProt P01868 98-324, looked up)
chain: B1 chain with T32Y, T36E, H213K, N214F
notes: domain: Fc-hinge; also called mutation-set-2; TT-HN

Kd [2]: 2.6 nM
Kd [3]: 115 nM
B3: m-set-1 mouse Fc-hinge fragment (IgG1-derived; T252L/T254S/T256F/E380A/H433K/N434F) (other, UniProt P01868 98-324, looked up)
chain: B1 chain with T32L, T34S, T36F, E160A, H213K, N214F
notes: domain: Fc-hinge; also called mutation-set-1

Kd [4]: 300 nM
B4: mIgG1-Fc(WT)-OVA(323-339) (Fc fusion)
chain: VPRDCGCKPCICTVPEVSSVFIFPPKPKDVLTITLTPKVTCVVVDISKDDPEVQFSWFVDDVEVHTAQTQPREEQFNSTFRSVSELPIMHQDWLNGKEFKCRVNSAAFPAPIEKTISKTKGRPKAPQVYTIPPPKEQMAKDKVSLTCMITDFFPEDITVEWQWNGQPAENYKNTQPIMDTDGSYFVYSKLNVQKSNWEAGNTFTCSVLHEGLHNHHTEKSLSHSPGKGSGGISQAVHAAHAEINEAGRGSGHHHHHH

B5: mIgG1-Fc(H435A)-OVA(323-339) (Fc fusion)
chain: B4 chain with H215A
notes: The limits of the leader are inferred as for m4
binding result [5]: no binding (tested: mFcRn injected at 1-2000 nM)

Kd [6]: 3 nM
Kd [7]: 14.9 nM
B6: mIgG1-Fc(TT-HN)-OVA(323-339) (Fc fusion)
chain: B4 chain with T32Y, T36E, H213K, N214F
notes: The limits of the leader are inferred as for m4; also called Fc(T252Y/T256E/H433K/N434F)-antigen
